# Data from the Human Domainome abundance scans (Beltran et al. 2025).
# ± gives the uncertainty stated by the source.
# B1: Homeobox protein cut-like 1, residues 548 to 629; numbered along this chain, P39880 (parent)
# chain: GEEMDTAEIARQVKEQLIKHNIGQRIFGHYVLGLSQGSVSEILARPKPWNKLTVRGKEPFHKMKQFLSDEQNILALRSIQGR
# Variants of: B1
# Test: abundance fitness (aPCA) (normalised: wild type 0, dead -1); higher = more abundant; growth selection in yeast, the domain comes from the species named
# Settings: Homo sapiens
row,Variant,abundance fitness
1,GEEMSTAEIARQVKEQLIKHNIGQRIFGHYVLGLSQGSVSEILARPKPWNKLTVRGKEPFHKMKQFLSDEQNILALRSIQGR,-0.082 ± 0.032
2,GEEMDTAEIARQVKEQIIKHNIGQRIFGHYVLGLSQGSVSEILARPKPWNKLTVRGKEPFHKMKQFLSDEQNILALRSIQGR,-0.358 ± 0.094
3,GEEMDTAEIARQVKEQTIKHNIGQRIFGHYVLGLSQGSVSEILARPKPWNKLTVRGKEPFHKMKQFLSDEQNILALRSIQGR,-0.518 ± 0.057
4,GEEMDTAEIARQVKEQLIKHNIGQRIFGHYVLGLSQGSVSEILARPKPWNKLTVRGTEPFHKMKQFLSDEQNILALRSIQGR,-0.408 ± 0.042
5,GEEMDTAEIARQVKEQLIKHNIGQRIFGHYVLGLSQGSVSEILACPKPWNKLTVRGKEPFHKMKQFLSDEQNILALRSIQGR,-0.001 ± 0.052
6,GEEMDTAEIARQVKEQLIKHNIGQRIFGHYVLGLSQGSVSEILAMPKPWNKLTVRGKEPFHKMKQFLSDEQNILALRSIQGR,-0.049 ± 0.042
7,GEEMDTAEIARQVKEQLIKHNIGQRIFGHYVLGLSQGSVSEILATPKPWNKLTVRGKEPFHKMKQFLSDEQNILALRSIQGR,-0.003 ± 0.038
8,GEEMDTAEIARQVKEQLIKHNIGQRIFGHYVLGLSQGSVSEILAPPKPWNKLTVRGKEPFHKMKQFLSDEQNILALRSIQGR,-0.797 ± 0.086
9,GEEMDTAEIARQVKEQLIKHNIGQRIFGHYVLGLSQGSVSEILAKPKPWNKLTVRGKEPFHKMKQFLSDEQNILALRSIQGR,-0.006 ± 0.039
10,GEEMDTAEIARQVKEQLIKHNIGQRIFGHYVNGLSQGSVSEILARPKPWNKLTVRGKEPFHKMKQFLSDEQNILALRSIQGR,-0.768 ± 0.12
11,GEEMDTAEIARQVKEQLIKHNIGQRIFGHYVLGLSQGSVSEILARPKRWNKLTVRGKEPFHKMKQFLSDEQNILALRSIQGR,-0.475 ± 0.029
12,GEEMDTAEIARQVKEQLIKHNIGQRIFGHYVLGLSQGSVSEILARPKPWNLLTVRGKEPFHKMKQFLSDEQNILALRSIQGR,0.011 ± 0.058
13,GEEMDTAEIARQVKEQLIKHNIGQRIFGHYVLGLSQGSVSEILARPKPWNKLTVRGKEPFHKMKQFLSDEQNHLALRSIQGR,-0.5 ± 0.088
14,GEEMDTAEIARQVKEQLIKHNIGQRIFGHYVLGLSQGSVSEILARPKPWNKLTVRGKEPFHKMKQFLSDEQNQLALRSIQGR,-0.336 ± 0.048
15,GEEMDTAEIARQVKEQLIKHQIGQRIFGHYVLGLSQGSVSEILARPKPWNKLTVRGKEPFHKMKQFLSDEQNILALRSIQGR,-0.021 ± 0.033
16,GEEMDTAEIARQVKEQLIKHNIGQRIFGHYVLGLSQGSVSEILARPKPWNKTTVRGKEPFHKMKQFLSDEQNILALRSIQGR,-0.99 ± 0.2
17,GEEMDTAEIARQVKEQLIKHNIGQRIFGHYVLGLSQGSVSEILARPKPWNKLTVRGKEPFHLMKQFLSDEQNILALRSIQGR,-0.12 ± 0.031

row,Variant,abundance fitness
1,GEEMDTAEIARQVKEQLIKHNIGQRIFGHYVLGGSQGSVSEILARPKPWNKLTVRGKEPFHKMKQFLSDEQNILALRSIQGR,-0.461 ± 0.029
2,GEEMDTAEIARQVKEQLIKHNIGQRIFGHYVLGPSQGSVSEILARPKPWNKLTVRGKEPFHKMKQFLSDEQNILALRSIQGR,-0.519 ± 0.059
3,GEEMDTAEIARQVKEQLIKHNIGQRIFGHYVLGNSQGSVSEILARPKPWNKLTVRGKEPFHKMKQFLSDEQNILALRSIQGR,-0.362 ± 0.079
4,GEEMDTAEIARQVKEQLIKHNIGQRIFGHYVLGLSQGSVSEILARPKPWNKLTVRGKEPFHKMKQFLADEQNILALRSIQGR,-0.041 ± 0.031
5,GEEMDTAEIARQVKEQLIKHNIGQRIFGHYVLGLSQGSVSEILARPKPWNKLTVREKEPFHKMKQFLSDEQNILALRSIQGR,0.085 ± 0.029
6,GEEMDTAEIARQVKEQLIKHNIGQRIFGHYVLGLSQGSVSEILARPKPWNKLTVRHKEPFHKMKQFLSDEQNILALRSIQGR,-0.352 ± 0.082
7,GEEMDTAEIARQVKEQLIKHNIGQRIFGHYVLGLSQGSVSEILARPKPWNKLTVRFKEPFHKMKQFLSDEQNILALRSIQGR,-0.224 ± 0.068
8,GEEMDTAEIARQVKEQLIKHNIGQRIFGHYVLGLSQGSVSEILARPKPWNKLTVRQKEPFHKMKQFLSDEQNILALRSIQGR,0.077 ± 0.036
9,GEEMDTAEIARQVKEQLIKHNIGQRIFGHYVLGLSQGSVSEILARPKPWNKLTVRKKEPFHKMKQFLSDEQNILALRSIQGR,-0.595 ± 0.057
10,GEEMDTAEIARQVKEQLIKHNIGQRIFGHYVLGLSQGSVSEILARPKPWNKLTVRGKEPFHKMKQFLSEEQNILALRSIQGR,-0.134 ± 0.034
11,GEEMDTAEIARQVKEQLIKHNIGQRIFGHYVLGLSQGSVSEMLARPKPWNKLTVRGKEPFHKMKQFLSDEQNILALRSIQGR,0.004 ± 0.038
12,GQEMDTAEIARQVKEQLIKHNIGQRIFGHYVLGLSQGSVSEILARPKPWNKLTVRGKEPFHKMKQFLSDEQNILALRSIQGR,-0.126 ± 0.04
13,GEEMDTAEIARQVKEQLIKHNIGQRIFSHYVLGLSQGSVSEILARPKPWNKLTVRGKEPFHKMKQFLSDEQNILALRSIQGR,-0.05 ± 0.033
14,GEEMDTAEIARQVKEQLIKHNIGQRIFHHYVLGLSQGSVSEILARPKPWNKLTVRGKEPFHKMKQFLSDEQNILALRSIQGR,-0.485 ± 0.083
15,GEEMDTAEIARQVKEQLIKHNIGQRIFGHYVLGLSQGSVSEILARPKPWNKLEVRGKEPFHKMKQFLSDEQNILALRSIQGR,-0.251 ± 0.059
16,GEEMDTAEIARQVKEQLIKHNIGQRIFGHYVLGLSQGSVSEILARPKPWNKLAVRGKEPFHKMKQFLSDEQNILALRSIQGR,-0.341 ± 0.049
17,GEEMDTAEIARQVKEQLIKHNIGQRIFGHYVLGLSQGSVSEILARPKPWNKLTVRGKEPFHKMPQFLSDEQNILALRSIQGR,-0.917 ± 0.1
